Source: US20240124560A1

Key:
Test in all cases: cell-based or functional assay
[1] = target: HIV-1 Env of pseudovirus NIH-051_CNE17 (HIV-1)
[2] = target: HIV-1 Env of NIH-053_CNE52 (HIV-1)
[3] = target: HIV-1 Env of NIH-023_ZM249M.PL1 (HIV-1)
[4] = target: HIV-1 Env of NIH-065_191955 A11 (HIV-1)
[5] = target: HIV-1 Env of NIH-095_6480.v4.c25 (HIV-1)
[6] = target: HIV-1 Env of pseudovirus NIH-002_QHO692 .42 (HIV-1)
[7] = target: HIV-1 Env of pseudovirus NIH-101_6540.v4.c1 (HIV-1)
[8] = target: HIV-1 Env of pseudovirus NIH-115_928.28 (HIV-1)
[9] = target: HIV-1 Env of pseudovirus NAC_YU2 (HIV-1) (UniProt P35961)
[10] = target: HIV-1 Env of NIH-117_T278.5 (HIV-1)
[11] = target: HIV-1 Env of NAC_HxB2 (HIV-1) (UniProt P04578)
[12] = target: HIV-1 Env of NIH-004_PVO.4 (HIV-1)
[13] = target: HIV-1 Env of NIH-059_Q461ENVe2 (HIV-1)
[14] = target: HIV-1 Env of NIH-026_ZM135M.PL10a (HIV-1)
[15] = target: HIV-1 Env of pseudovirus NAC_BaL.26 (HIV-1)
[16] = target: HIV-1 Env of NIH-048_CNE19 (HIV-1)
[17] = target: HIV-1 Env of pseudovirus NIH-100_6041.v3.c23 (HIV-1)
[18] = target: HIV-1 Env of pseudovirus NIH-047_Ce704809221 1B3 (HIV-1)
[19] = target: HIV-1 Env of NIH-002_QHO692 .42 (HIV-1)
[20] = target: HIV-1 Env of NAC_DH12 (HIV-1)
[21] = target: HIV-1 Env of NIH-047_Ce704809221 1B3 (HIV-1)
[22] = target: HIV-1 Env of NIH-118_T255.34 (HIV-1)
[23] = target: HIV-1 Env of NIH-104_3103.v3.c10 (HIV-1)
[24] = target: HIV-1 Env of NIH-058_Q23ENV17 (HIV-1)
[25] = target: HIV-1 Env of pseudovirus NIH-054_CNE53 (HIV-1)
[26] = target: HIV-1 Env of pseudovirus NIH-052_CNE30 (HIV-1)
[27] = target: HIV-1 Env of pseudovirus NAC_REJO.67 (HIV-1)
[28] = target: HIV-1 Env of pseudovirus NIH-104_3103.v3.c10 (HIV-1)
[29] = target: HIV-1 Env of NIH-099_3301.v1.c24 (HIV-1)
[30] = target: HIV-1 Env of pseudovirus NIH-020_ZM197M.PB7 (HIV-1)
[31] = target: HIV-1 Env of pseudovirus NAC_HxB2 (HIV-1) (UniProt P04578)
[32] = target: HIV-1 Env of pseudovirus NAC_JRCSF (HIV-1) (UniProt P20871)
[33] = target: HIV-1 Env of pseudovirus NIH-096_6952.v1.c20 (HIV-1)
[34] = target: HIV-1 Env of pseudovirus NAC_TRJO.58 (HIV-1)
[35] = target: HIV-1 Env of pseudovirus NIH-043_ZM249M.B10 (HIV-1)
[36] = target: HIV-1 Env of pseudovirus NAC_89.6 (HIV-1)
[37] = target: HIV-1 Env of NIH-007_CAAN5342.A2 (HIV-1)
[38] = target: HIV-1 Env of isolate NIH-085_X2088 c9 (HIV-1)
[39] = target: HIV-1 Env of pseudovirus NIH-022_ZM233M.PB6 (HIV-1)
[40] = target: HIV-1 Env of NIH-046_1394C9G1(Rev.) (HIV-1)
[41] = target: HIV-1 Env of pseudovirus NAC_SS1196.1 (HIV-1)
[42] = target: HIV-1 Env of pseudovirus NIH-030_HIV-0013095.2.11 (HIV-1)
[43] = target: HIV-1 Env of pseudovirus NAC_RHPA4.7 (HIV-1)
[44] = target: HIV-1 Env of NIH-035_Ce1176 A3 (HIV-1)
[45] = target: HIV-1 Env of pseudovirus NIH-006_AC10.0.29 (HIV-1)
[46] = target: HIV-1 Env of NIH-020_ZM197M.PB7 (HIV-1)

4E10 (antibody)
neutralization IC50 [1]: 0.526 µg/mL | IC80 neutralization [2]: 3.85 µg/mL | IC80 neutralization [3]: 5.77 µg/mL | IC80 neutralization [4]: 0.157 µg/mL | IC80 neutralization [5]: 3.04 µg/mL | neutralization IC50 [6]: 6.19 µg/mL | neutralization IC50 [7]: 5.63 µg/mL | neutralization IC50 [8]: 0.112 µg/mL | neutralization IC50 [9]: 15.9 µg/mL | IC80 neutralization [10]: 6.03 µg/mL | IC80 neutralization [11]: 0.089 µg/mL | IC80 neutralization [12]: 38.7 µg/mL | IC80 neutralization [13]: 9.31 µg/mL | IC80 neutralization [14]: 0.936 µg/mL | neutralization IC50 [15]: 4.2 µg/mL | IC80 neutralization [16]: 1.43 µg/mL | neutralization IC50 [17]: 5.48 µg/mL | neutralization IC50 [18]: 0.134 µg/mL | IC80 neutralization [19]: 25 µg/mL | IC80 neutralization [20]: 4.89 µg/mL | IC80 neutralization [21]: 0.557 µg/mL | IC80 neutralization [22]: 1.38 µg/mL | IC80 neutralization [23]: 32.4 µg/mL | IC80 neutralization [24]: 5.37 µg/mL | neutralization IC50 [25]: 0.38 µg/mL | neutralization IC50 [26]: 4.17 µg/mL | neutralization IC50 [27]: 1.87 µg/mL | neutralization IC50 [28]: 8.11 µg/mL | IC80 neutralization [29]: > 50 µg/mL | neutralization IC50 [30]: 0.226 µg/mL | neutralization IC50 [31]: 0.021 µg/mL | neutralization IC50 [32]: 0.823 µg/mL | neutralization IC50 [33]: 0.721 µg/mL | neutralization IC50 [34]: 2.97 µg/mL | neutralization IC50 [35]: 1.11 µg/mL | neutralization IC50 [36]: 2.77 µg/mL | IC80 neutralization [37]: 12.1 µg/mL | IC80 (µg/ml), TZM-bl pseudovirus neutralization [38]: > 50 µg/mL | neutralization IC50 [39]: 1.05 µg/mL | IC80 neutralization [40]: 10.4 µg/mL | neutralization IC50 [41]: 0.99 µg/mL | neutralization IC50 [42]: 0.001 µg/mL | neutralization IC50 [43]: 4.66 µg/mL | IC80 neutralization [44]: 7.36 µg/mL | neutralization IC50 [45]: 0.666 µg/mL | IC80 neutralization [46]: 1.08 µg/mL

PGZL1 (antibody)
neutralization IC50 [1]: 12.4 µg/mL | IC80 neutralization [2]: > 50 µg/mL | IC80 neutralization [3]: > 50 µg/mL | IC80 neutralization [4]: 8.56 µg/mL | IC80 neutralization [5]: > 50 µg/mL | neutralization IC50 [6]: 42 µg/mL | neutralization IC50 [7]: > 50 µg/mL | neutralization IC50 [8]: 1.38 µg/mL | neutralization IC50 [9]: > 50 µg/mL | IC80 neutralization [10]: > 50 µg/mL | IC80 neutralization [11]: 0.485 µg/mL | IC80 neutralization [12]: > 50 µg/mL | IC80 neutralization [13]: > 50 µg/mL | IC80 neutralization [14]: 2.08 µg/mL | neutralization IC50 [15]: > 50 µg/mL | IC80 neutralization [16]: 12.1 µg/mL | neutralization IC50 [17]: > 50 µg/mL | neutralization IC50 [18]: 0.738 µg/mL | IC80 neutralization [19]: > 50 µg/mL | IC80 neutralization [20]: 19 µg/mL | IC80 neutralization [21]: 3.1 µg/mL | IC80 neutralization [22]: 13.2 µg/mL | IC80 neutralization [23]: > 50 µg/mL | IC80 neutralization [24]: > 50 µg/mL | neutralization IC50 [25]: 6 µg/mL | neutralization IC50 [26]: 40.5 µg/mL | neutralization IC50 [27]: 10.7 µg/mL | neutralization IC50 [28]: > 50 µg/mL | IC80 neutralization [29]: > 50 µg/mL | neutralization IC50 [30]: 1.91 µg/mL | neutralization IC50 [31]: 0.121 µg/mL | neutralization IC50 [32]: 13.4 µg/mL | neutralization IC50 [33]: 0.89 µg/mL | neutralization IC50 [34]: > 50 µg/mL | neutralization IC50 [35]: 6.26 µg/mL | neutralization IC50 [36]: 25.3 µg/mL | IC80 neutralization [37]: > 50 µg/mL | IC80 (µg/ml), TZM-bl pseudovirus neutralization [38]: > 50 µg/mL | neutralization IC50 [39]: 5.9 µg/mL | IC80 neutralization [40]: 34.3 µg/mL | neutralization IC50 [41]: 5.4 µg/mL | neutralization IC50 [42]: 0.008 µg/mL | neutralization IC50 [43]: > 50 µg/mL | IC80 neutralization [44]: > 50 µg/mL | neutralization IC50 [45]: 4.64 µg/mL | IC80 neutralization [46]: 7.66 µg/mL

VRC01 (antibody)
neutralization IC50 [1]: 0.219 µg/mL | IC80 neutralization [2]: 0.565 µg/mL | IC80 neutralization [3]: 0.197 µg/mL | IC80 neutralization [4]: 0.467 µg/mL | IC80 neutralization [5]: 0.054 µg/mL | neutralization IC50 [6]: 1.96 µg/mL | neutralization IC50 [7]: > 50 µg/mL | neutralization IC50 [8]: 0.249 µg/mL | neutralization IC50 [9]: 0.123 µg/mL | IC80 neutralization [10]: > 50 µg/mL | IC80 neutralization [11]: 0.081 µg/mL | IC80 neutralization [12]: 0.79 µg/mL | IC80 neutralization [13]: 0.776 µg/mL | IC80 neutralization [14]: 0.379 µg/mL | neutralization IC50 [15]: 0.01 µg/mL | IC80 neutralization [16]: 0.512 µg/mL | neutralization IC50 [17]: 0.023 µg/mL | neutralization IC50 [18]: 0.32 µg/mL | IC80 neutralization [19]: 7.93 µg/mL | IC80 neutralization [20]: 0.898 µg/mL | IC80 neutralization [21]: 1.28 µg/mL | IC80 neutralization [22]: 0.925 µg/mL | IC80 neutralization [23]: 6.21 µg/mL | IC80 neutralization [24]: 0.148 µg/mL | neutralization IC50 [25]: 0.042 µg/mL | neutralization IC50 [26]: 0.593 µg/mL | neutralization IC50 [27]: 0.106 µg/mL | neutralization IC50 [28]: 1.53 µg/mL | IC80 neutralization [29]: 0.463 µg/mL | neutralization IC50 [30]: 0.17 µg/mL | neutralization IC50 [31]: 0.022 µg/mL | neutralization IC50 [32]: 0.172 µg/mL | neutralization IC50 [33]: 0.025 µg/mL | neutralization IC50 [34]: 0.057 µg/mL | neutralization IC50 [35]: 0.071 µg/mL | neutralization IC50 [36]: 0.807 µg/mL | IC80 neutralization [37]: 2.79 µg/mL | IC80 (µg/ml), TZM-bl pseudovirus neutralization [38]: > 50 µg/mL | neutralization IC50 [39]: 1.41 µg/mL | IC80 neutralization [40]: 1.12 µg/mL | neutralization IC50 [41]: 0.166 µg/mL | neutralization IC50 [42]: 0.0002 µg/mL | neutralization IC50 [43]: 0.035 µg/mL | IC80 neutralization [44]: 4.99 µg/mL | neutralization IC50 [45]: 0.867 µg/mL | IC80 neutralization [46]: 0.682 µg/mL
